T1: human CD16b (NA1), full length, on FlpinCHO cells (human, UniProt O75015 17-200)
T1 construct: also called FlpinCHO-human CD16b (NA1)
T1 chain: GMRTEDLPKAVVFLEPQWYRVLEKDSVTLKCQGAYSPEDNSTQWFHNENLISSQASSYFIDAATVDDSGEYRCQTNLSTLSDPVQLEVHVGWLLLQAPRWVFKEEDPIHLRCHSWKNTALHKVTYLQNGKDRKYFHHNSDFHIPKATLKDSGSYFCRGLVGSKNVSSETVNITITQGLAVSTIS

T2: human CD16b (NA2), full length, on FlpinCHO cells (human, UniProt O75015 17-200)
T2 construct: also called FlpinCHO-human CD16b (NA2)
T2 chain: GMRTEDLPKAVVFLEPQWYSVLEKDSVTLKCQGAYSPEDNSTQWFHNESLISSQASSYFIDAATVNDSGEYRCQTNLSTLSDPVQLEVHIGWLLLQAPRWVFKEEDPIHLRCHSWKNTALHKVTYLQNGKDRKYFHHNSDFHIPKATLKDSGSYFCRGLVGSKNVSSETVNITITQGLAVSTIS


Assays:
[1] = target: T3, CD16 on primary human NK cells (human, UniProt P08637 17-254); assay: FACS on human NK cells
T3 construct: whole, on cells; also called resting NK cells
Description: (§1) The required cells were scale-up cultured in a T-75 cell culture flask to the logarithmic growth phase. The medium was aspirated, and the cells were washed twice with a PBS buffer and then digested with trypsin. After the digestion was terminated, the cells were washed twice with the PBS buffer. The cells were counted, and then the cell pellet was resuspended with a [PBS+2% (w/w) BSA] blocking solution to 2×10⁶ cells/ml, and added to a 96-well FACS reaction plate at 50 μl/well. […] 50 μl/well of the antibody to be detected was added at different concentrations, and incubated on ice for 1 hour. […] The mixture was centrifuged and washed 5 times with PBS, and FACS (FACS Canto II, purchased from BD Company) was used for detection and result analysis. Data analysis was performed by software (CellQuest) to obtain the mean fluorescence intensity (MFI) of the cells. Then, software (GraphPad Prism8) was used for analysis, data fitting and EC50 value calculation.
The binding of an antibody to be detected to freshly prepared human NK cells (Milestone Biotechnologies, catalog number: PB56-N-Custom) was detected according to the method of Example 3.1.

[2] = target: T4, human CD16a (158F), full length, on FlpinCHO cells (human, UniProt P08637 17-254); assay: FACS on FlpinCHO cells
Description: as §1

[3] = target: T5, human CD16a (158V), full length, on cells (human, UniProt P08637 17-254); assay: FACS on FlpinCHO cells
T5 construct: also used as target for the bought Jurkat-NFAT reporter line stably expressing human CD16a (158V); also called FlpinCHO-human CD16a (158V); FlpinCHO-CD16a (158V)
Description: as §1

[4] = target: T5, human CD16a (158V), full length, on …; assay: cell-based or functional assay
[5] = target: T4, human CD16a (158F), full length, on …; assay: FACS, biotinylated antibody, +10 mg/mL human immunoglobulin
Description: as §1, with “The” for “The required cells were scale-up cultured in a T-75 cell culture flask to the logarithmic growth phase. The”
(§2) An antibody to be detected was labeled in advance according to the instructions of a biotin labeling kit (EZ-Link™ NHS-PEG4 Biotinylation Kit, purchased from Thermofisher Scientific, catalog number: 21455). […] Detection was performed according to the method of Example 3.1, wherein the biotinylated antibody was detected with fluorescein APC-labeled Streptavidin (High Concentration) (purchased from Biolegend, catalog number: 405243).

[6] = target: T5, human CD16a (158V), full length, on …; assay: as above
Description: as §1, with “The” for “The required cells were scale-up cultured in a T-75 cell culture flask to the logarithmic growth phase. The”
as §2

Human CD16a (158F)-his = target: T6, Human CD16a (158F)-his (human); assay: SPR (Biacore), antibody captured on Protein A
T6 construct: entry holds ECD, AVI tag, linker and His tag
Description: (§3) A sample buffer and a running buffer were HBS-EP+ (10 mM HEPES, 150 mM NaCl, 3 mM EDTA and 0.05% surfactant P20) (GE Healthcare; BR-1006-69). The flow-through cell was set to 25° C. The sample block was set to 16° C. Both were pretreated with the running buffer. In each cycle, an antibody to be detected was first captured with a Protein A chip, and then a single concentration of CD16 antigen protein was injected. The binding and dissociation processes of the antibody and the antigen protein were recorded, and finally Glycine pH 1.5 (GE Healthcare; BR-1003-54) was used to complete chip regeneration. Binding was measured by injecting different concentrations of recombinant human CD16-ECD his proteins in a solution for 240 s with a flow rate of 30 μL/min, wherein a total of 5 concentrations were prepared by using 200 nM as a starting concentration (see the detailed results for the actual concentration in the test) and performing a 1:1 dilution. The dissociation phase was monitored for up to 600 s and was triggered by switching from a sample solution to a running buffer. The surface was regenerated by washing with a 10 mM glycine solution (pH 1.5) for 30 s at a flow rate of 30 μL/min. Bulk refractive index difference was corrected by subtracting the response obtained from the goat anti-human Fc surface. Blank injection was also subtracted (=double reference). For calculation of apparent KD and other kinetic parameters, Langmuir 1:1 model was used.

Human CD16a (158V)-his = target: T7, Human CD16a (158V)-his (human); assay: SPR (Biacore), antibody captured on Protein A
T7 construct: entry holds ECD, AVI tag, linker and His tag
Description: as §3

[7] = target: T1, human CD16b (NA1), full length, on …; assay: FACS on FlpinCHO cells
Description: as §1
(§4) The binding of an antibody to be detected to FlpinCHO-human CD16b cells was detected according to the method of Example 3.1.

[8] = target: T2, human CD16b (NA2), full length, on …; assay: FACS on FlpinCHO cells
Description: as §1, §4

[9] = target: T4, human CD16a (158F), full length, on …; assay: FACS, biotinylated antibody
Description: as §1, with “The” for “The required cells were scale-up cultured in a T-75 cell culture flask to the logarithmic growth phase. The”
as §2

[10] = target: T5, human CD16a (158V), full length, on …; assay: FACS, biotinylated antibody
Description: as §1, with “The” for “The required cells were scale-up cultured in a T-75 cell culture flask to the logarithmic growth phase. The”
as §2

EC50 [2] [nM]	Maximum mean fluorescence intensity [2]	EC50 [3] [nM]	Maximum mean fluorescence intensity [3]	EC50, activation activity for Jurkat cell [4] [nM]	Maximum fluorescence value [4]	EC50 [5] [nM]	Maximum mean fluorescence intensity [5]	EC50 [6] [nM]	Maximum mean fluorescence intensity [6]	Kd (Human CD16a (158F)-his) [nM]	koff (Human CD16a (158F)-his) [s⁻¹]	kon (Human CD16a (158F)-his) [M⁻¹ s⁻¹]	Kd (Human CD16a (158V)-his) [nM]	koff (Human CD16a (158V)-his) [s⁻¹]	kon (Human CD16a (158V)-his) [M⁻¹ s⁻¹]	EC50 [7] [nM]	Maximum mean fluorescence intensity [7]	Maximum mean fluorescence intensity [8]	binding result [8]	Binder	other results
0.25	5190	0.32	5970	0.02	174000	0.87	5520	0.85	7900	67.2	0.00451	67200	22.7	0.00249	110000	0.35	52900	113	no binding (tested: 100 nM)	VHH07 VHH-Fc antibody (Fc fusion) EVQLVESGGGLVQAGGSLRLSCVASRSTLTTYAVRWYRQAPGKQREWVAFISVDGKTNYPDSVKGRFIVSRDNAKNTVYLQMNSLKPEDTADYICRAGGQYWGQGTQVTVSSEPKSSDKTHTCPPCPAPEFEGGPSVFLFPPKPKDTLMISRTPEVTCVVVAVSHEDPEVKFNWYVDGVEVHNAKTKPREEQYNSTYRVVSVLTVLHQDWLNGKEYKCKVSNKALPAPIEKTISKAKGQPREPQVYTLPPSREEMTKNQVSLTCLVKGFYPSDIAVEWESNGQPENNYKTTPPVLDSDGSFFLYSKLTVDKSRWQQGNVFSCSVMHEALHNHYTQKSLSLSPGK	EC50 [1]: 0.22 nM; Maximum mean fluorescence intensity [1]: 2330; EC50 [9]: 0.24 nM; Maximum mean fluorescence intensity [9]: 4160; EC50 [10]: 0.22 nM; Maximum mean fluorescence intensity [10]: 5970
0.56	4240	0.81	4710	0.02	178000	1.08	6060	1.24	8840	80.5	0.00559	69500	22.1	0.00266	120000	0.18	38600	149	no binding (tested: 100 nM)	VHH08 VHH-Fc antibody (Fc fusion) EVQVVESGGGLVQAGGSLRLSCVASRSTLSTYAVRWYRQAPGNQREWVAFISVDGNTNYPDSVKGRFIVSRDNAKNTVYLQMNSLKPEDTADYICRAGGQYWGQGTQVTVSSEPKSSDKTHTCPPCPAPEFEGGPSVFLFPPKPKDTLMISRTPEVTCVVVAVSHEDPEVKFNWYVDGVEVHNAKTKPREEQYNSTYRVVSVLTVLHQDWLNGKEYKCKVSNKALPAPIEKTISKAKGQPREPQVYTLPPSREEMTKNQVSLTCLVKGFYPSDIAVEWESNGQPENNYKTTPPVLDSDGSFFLYSKLTVDKSRWQQGNVFSCSVMHEALHNHYTQKSLSLSPGK	EC50 [9]: 0.85 nM; Maximum mean fluorescence intensity [9]: 3940; EC50 [10]: 0.71 nM; Maximum mean fluorescence intensity [10]: 5660
0.47	5550	0.69	6240	0.03	159000	1.35	6500	1.74	9480	50.2	0.00309	61600	16.1	0.00178	110000	0.3	48200	143	no binding (tested: 100 nM)	VHH09 VHH-Fc antibody (Fc fusion) EVQVVESGGGLVQAGGSLRLSCVASTSTLTTYAVRWYRQAPGKQREWVAFISVDGNTNYPDSVKGRFIVSRDNAKNTVYLQMNSLKPEDTADYICRAGGQYWGQGTQVTVSSEPKSSDKTHTCPPCPAPEFEGGPSVFLFPPKPKDTLMISRTPEVTCVVVAVSHEDPEVKFNWYVDGVEVHNAKTKPREEQYNSTYRVVSVLTVLHQDWLNGKEYKCKVSNKALPAPIEKTISKAKGQPREPQVYTLPPSREEMTKNQVSLTCLVKGFYPSDIAVEWESNGQPENNYKTTPPVLDSDGSFFLYSKLTVDKSRWQQGNVFSCSVMHEALHNHYTQKSLSLSPGK	EC50 [1]: 0.76 nM; Maximum mean fluorescence intensity [1]: 2420; EC50 [9]: 0.39 nM; Maximum mean fluorescence intensity [9]: 5140; EC50 [10]: 0.64 nM; Maximum mean fluorescence intensity [10]: 7640
